# B1: REGN1909 (antibody, V domains shown)
# VH: EVQLVESGGGLVQPGGSLRLSCAASGFTFSSYAMSWVRQAPGKGLEWVSAISGRGYNADYADSVKGRFTISRDNSKNTLYLQMNSLRAEDTAVYYCAKLEYFDYWGQGTLVTVSS
# VL: DIQMTQSPSTLSASVGDRVTITCRASQSISSWLAWYQQKPGKAPKLLIYKASSLESGVPSRFSGSGSGTDFTLTISSLRPEDFATYYCQQYNSYPLTFGGGTKVEIK
# Target: T1, natural Fel d 1 (Felis catus, UniProt P30438;P30440)
# T1 construct: Fel d 1 Chain 1, cat, of the natural Fel d 1 heterodimer; Fel d 1 Chain 2, cat, of the natural Fel d 1 heterodimer; also called nFel d 1; source: bought: Indoor Biotech, Catalog #LTN-FD-1
# Experiment: SPR; Biacore T200; REGN1909 (94-163 RU) captured on a goat anti-human Fcγ coupled surface; nFel d 1 or rFel d 1.mmh injected in 2-fold dilutions; 10 mM HEPES, 150 mM NaCl, 3 mM MgCl2, 3 mM CaCl2, 0.05% P20, pH 7.4; 1:1 binding model with mass transport limitation
# Conditions: both partners purified
binder,measurement,value
B1,binding result,binds
